± gives the uncertainty stated by the source.

Sequences and labels used below:
B1: Protein C-ets-1, residues 55 to 135; numbered along this chain, P14921 (parent)
chain: GFTKEQQRLGIPKDPRQWTETHVRDWVMWAVNEFSLKGVDFQKFCMNGAALCALGKDCFLELAPDFVGDILWEHLEILQKE

This data set covers variants of B1. Put plainly: abundance fitness (aPCA) (normalised: wild type 0, dead -1); higher = more abundant; growth selection in yeast, the domain comes from the species named. The following applies: Homo sapiens.
On to GFTKEQQRLGIPKDPRQWTETHVRDWVMWAVNEFSLKGVDFQKFCMNGAALCALGKDCFLELAPDFVGDILWECLEILQKE [H74C], for which the abundance fitness was -0.137 ± 0.054.
As for GFTKEQQRLGIPKDPRQWTETHVRDWVMWAQNEFSLKGVDFQKFCMNGAALCALGKDCFLELAPDFVGDILWEHLEILQKE [V31Q], the figure is -0.126 ± 0.04; as for GFTKEQQRLGIPKDPRQWTETHVRDWVMWARNEFSLKGVDFQKFCMNGAALCALGKDCFLELAPDFVGDILWEHLEILQKE [V31R], -0.274 ± 0.027; as for GFTKEQQRLGIPKDPRQWTETHVRDWVMWAVNEFSLKGWDFQKFCMNGAALCALGKDCFLELAPDFVGDILWEHLEILQKE [V39W], -0.445 ± 0.051.
As for GFTKEQQRLYIPKDPRQWTETHVRDWVMWAVNEFSLKGVDFQKFCMNGAALCALGKDCFLELAPDFVGDILWEHLEILQKE [G10Y], the figure is -0.33 ± 0.07.
Consider GFTKEQQRLGIPKDPRQWTETHVRDWVMWAVNKFSLKGVDFQKFCMNGAALCALGKDCFLELAPDFVGDILWEHLEILQKE [E33K], for which the abundance fitness was -0.001 ± 0.05.
As for GFTKEQQRLGIPKDPRQWTETHVRDWVMWAVNEFSLKGVDFQKFTMNGAALCALGKDCFLELAPDFVGDILWEHLEILQKE [C45T], the figure is -0.007 ± 0.061; as for GFTKEQQRLGIPKDPRQWTETHVRDWVMWAVKEFSLKGVDFQKFCMNGAALCALGKDCFLELAPDFVGDILWEHLEILQKE [N32K], 0.028 ± 0.054; as for GFTKEQQRLGIPKDPRQWTETHVRDWVMWAVAEFSLKGVDFQKFCMNGAALCALGKDCFLELAPDFVGDILWEHLEILQKE [N32A], -0.001 ± 0.032.
Consider GFTKEQQRLGIPKDARQWTETHVRDWVMWAVNEFSLKGVDFQKFCMNGAALCALGKDCFLELAPDFVGDILWEHLEILQKE [P15A], for which the abundance fitness was -0.351 ± 0.052.
On to GFTKEQQRLGIPKDPRQWTETHVRDWVMWPVNEFSLKGVDFQKFCMNGAALCALGKDCFLELAPDFVGDILWEHLEILQKE [A30P], for which the abundance fitness was -0.8 ± 0.074.
As for GFTKEQQRLGIPKDPRQWTETHVRDWVMWAVNEFSLKGVDFQKFCMNGAALCALGKDCFLELAPDFVGDILWEHLEFLQKE [I77F], the figure is -0.013 ± 0.067.
The result for GFTKEQQRLGIPKDPRQWTETHVRDWVMWAVNEFSLKGVDFQKFCMNGAALCALGKDCFLELAPDFVGDILWEHLEALQKE [I77A] reads 0.008 ± 0.042; that for GFTKEQQRLGIPKDPRQWTETHVRDWVMWAVNEFSLKGVDFQKFCMNGAALCALGKDCFLELAPDFVGDILWEHLENLQKE [I77N], 0.17 ± 0.12; that for GFTKEQQRLGIPKDPRQWTETHVRDWVMWAVNEFSLKGVDFQKFCMNGAALCALGKDCWLELAPDFVGDILWEHLEILQKE [F59W], -0.318 ± 0.039.
As for GFTKEQQRLGIPKDPRQWTETHVRDWVMWAVNEFSLKGVDFQKFCMNGAALCALGKDCDLELAPDFVGDILWEHLEILQKE [F59D], the figure is -0.782 ± 0.078; as for GFTKEQQRLGIPKDPRQWTETHVRDWVMWAVNEFSLKTVDFQKFCMNGAALCALGKDCFLELAPDFVGDILWEHLEILQKE [G38T], -0.201 ± 0.047; as for GFTKEQQRLGIPKDPRQWTETHVRDWVMWAVNEFSLKHVDFQKFCMNGAALCALGKDCFLELAPDFVGDILWEHLEILQKE [G38H], 0 ± 0.082.
GFTKEQQRLGIPKDPRQWTETHVRDWVMWAVNEFGLKGVDFQKFCMNGAALCALGKDCFLELAPDFVGDILWEHLEILQKE [S35G]: the abundance fitness was 0.012 ± 0.027.
With GFTKEQQRLGIPKDPRQWTETHVRDWVMWAVNEFKLKGVDFQKFCMNGAALCALGKDCFLELAPDFVGDILWEHLEILQKE [S35K], the abundance fitness was -0.012 ± 0.049.
For GFTKEQQRLGIPKDPRQWTETHVRDWVMWAVNEFSLKGVDFQKFCMNGAALCALGKDCFLELAPDFWGDILWEHLEILQKE [V67W], the abundance fitness was -0.414 ± 0.096.
The result for GFTKEQQRLGIPKDPRQWTETHVRDWVMWAVNEFSLKGVDFQKFCMNGAALCALGKDCFLELAPDFRGDILWEHLEILQKE [V67R] reads -0.167 ± 0.048; that for GFTKEQQRLGIPKDPRQWTETHVRDWVMWAVNEFSLKGVDFQKFCMNGAALCALGKDCFLELAPDFSGDILWEHLEILQKE [V67S], -0.002 ± 0.066; that for GFTKEQQRLGIPKDPRQWTETHVRDWVMWAVNEFSLKGVDFQKFCMNGAALCALGKDCFLELAPDFQGDILWEHLEILQKE [V67Q], -0.069 ± 0.051.
The result for GFTKEQQRLGIPKDPRQWTETHVRDWVMWAVNEFSLKGVDFQKFCMNGAALCALGKDCFLELAPDFGGDILWEHLEILQKE [V67G] reads -0.018 ± 0.038.
Regarding GFTKEQQRFGIPKDPRQWTETHVRDWVMWAVNEFSLKGVDFQKFCMNGAALCALGKDCFLELAPDFVGDILWEHLEILQKE [L9F], the abundance fitness is -0.2 ± 0.068.
The result for GFTKEQQRLGIPKDPRQWTETHVRDWVMWAVNEFSLKGVDFQKFCMNGAALCALGKDCFQELAPDFVGDILWEHLEILQKE [L60Q] reads 0.027 ± 0.067; that for GFTKEQQRLGIPKDPRQWTETHVRDWVMWAVNEFSLKGVDFIKFCMNGAALCALGKDCFLELAPDFVGDILWEHLEILQKE [Q42I], -0.619 ± 0.1; that for GFTKEQQRLGIPKDPRQWTETHVRDWVMWAVNEFSLKGVDFQKFCMNGAALSALGKDCFLELAPDFVGDILWEHLEILQKE [C52S], -0.185 ± 0.033.
The result for GFTKEQQRLGIPKDPRQWTETHVRDWVMWAVNEFSLKGVDFQKFCMNGAALQALGKDCFLELAPDFVGDILWEHLEILQKE [C52Q] reads -0.494 ± 0.062; that for GFTKEQQRLGIPKDPRQWTETHVRDWVMWAVNEFSLKGVDFQKFCMNGAALCALGKDCFLELAPDFVGDWLWEHLEILQKE [I70W], -0.398 ± 0.048; that for GFTKEQQRLGIPKDPRQWTETHVRDWVMWAVNEFSLKGVDFQKFCMNGAALCALGKDCFLELAPDFVGDSLWEHLEILQKE [I70S], -0.228 ± 0.037.
Turning to GFTKEDQRLGIPKDPRQWTETHVRDWVMWAVNEFSLKGVDFQKFCMNGAALCALGKDCFLELAPDFVGDILWEHLEILQKE [Q6D], the abundance fitness was -0.277 ± 0.063.
In the case of GFTKEGQRLGIPKDPRQWTETHVRDWVMWAVNEFSLKGVDFQKFCMNGAALCALGKDCFLELAPDFVGDILWEHLEILQKE [Q6G], the abundance fitness is -0.101 ± 0.028.

(Values after the Human Domainome abundance scans (Beltran et al. 2025).)
